Experimental data as given in PMC3894786 (Cell, 2012).

How the values were obtained:
Assay in all cases: LUMIER with BACON
STK38 = STK38 (human, UniProt Q15208 1-465)
LCK = LCK (human, UniProt P06239 1-509)
CDK6 = CDK6 (human, UniProt Q00534 1-326)
FGFR3 = FGFR3 (human, UniProt P22607 23-806)
FGFR3, sequence (P22607 23-806): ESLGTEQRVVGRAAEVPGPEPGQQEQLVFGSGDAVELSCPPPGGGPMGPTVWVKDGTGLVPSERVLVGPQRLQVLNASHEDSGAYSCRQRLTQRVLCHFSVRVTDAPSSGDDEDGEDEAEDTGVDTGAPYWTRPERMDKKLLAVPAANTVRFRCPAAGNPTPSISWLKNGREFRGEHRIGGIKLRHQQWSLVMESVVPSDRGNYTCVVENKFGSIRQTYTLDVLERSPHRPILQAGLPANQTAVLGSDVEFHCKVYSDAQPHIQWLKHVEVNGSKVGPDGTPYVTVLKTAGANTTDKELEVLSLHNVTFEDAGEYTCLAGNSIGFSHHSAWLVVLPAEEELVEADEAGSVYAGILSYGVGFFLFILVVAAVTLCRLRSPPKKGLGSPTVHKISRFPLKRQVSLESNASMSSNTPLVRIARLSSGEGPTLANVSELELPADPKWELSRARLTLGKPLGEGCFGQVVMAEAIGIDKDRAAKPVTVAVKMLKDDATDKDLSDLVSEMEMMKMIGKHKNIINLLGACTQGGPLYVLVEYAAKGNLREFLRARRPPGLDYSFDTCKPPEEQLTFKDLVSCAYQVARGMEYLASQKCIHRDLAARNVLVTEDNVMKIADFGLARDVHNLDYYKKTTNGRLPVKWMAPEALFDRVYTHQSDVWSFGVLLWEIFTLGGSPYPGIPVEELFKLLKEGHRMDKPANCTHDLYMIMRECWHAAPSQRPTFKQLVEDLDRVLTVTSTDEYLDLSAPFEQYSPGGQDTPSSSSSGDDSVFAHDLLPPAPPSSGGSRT

LCK, sequence (P06239 whole entry): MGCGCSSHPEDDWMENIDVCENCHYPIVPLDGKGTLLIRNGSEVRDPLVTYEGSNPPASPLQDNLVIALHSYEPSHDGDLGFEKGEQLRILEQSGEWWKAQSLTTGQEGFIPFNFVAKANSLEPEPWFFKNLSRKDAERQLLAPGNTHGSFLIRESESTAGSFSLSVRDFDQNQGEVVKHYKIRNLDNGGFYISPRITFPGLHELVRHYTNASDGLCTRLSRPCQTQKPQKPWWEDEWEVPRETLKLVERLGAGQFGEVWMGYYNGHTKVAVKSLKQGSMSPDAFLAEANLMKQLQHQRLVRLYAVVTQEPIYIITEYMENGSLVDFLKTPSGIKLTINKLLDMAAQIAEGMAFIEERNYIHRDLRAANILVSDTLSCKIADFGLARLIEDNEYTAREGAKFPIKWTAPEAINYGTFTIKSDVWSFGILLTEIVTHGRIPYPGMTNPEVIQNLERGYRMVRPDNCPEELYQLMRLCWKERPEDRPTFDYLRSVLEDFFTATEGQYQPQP
CDK6, sequence (Q00534 whole entry): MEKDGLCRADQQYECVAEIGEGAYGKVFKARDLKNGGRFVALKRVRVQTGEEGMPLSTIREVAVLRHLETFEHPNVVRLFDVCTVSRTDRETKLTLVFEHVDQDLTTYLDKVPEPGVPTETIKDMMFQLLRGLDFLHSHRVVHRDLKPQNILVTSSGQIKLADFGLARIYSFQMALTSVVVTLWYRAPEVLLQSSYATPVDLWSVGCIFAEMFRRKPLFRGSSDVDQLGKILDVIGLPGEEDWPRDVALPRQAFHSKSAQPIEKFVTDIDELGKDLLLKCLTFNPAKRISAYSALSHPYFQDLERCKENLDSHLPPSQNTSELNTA
STK38, sequence (Q15208 whole entry): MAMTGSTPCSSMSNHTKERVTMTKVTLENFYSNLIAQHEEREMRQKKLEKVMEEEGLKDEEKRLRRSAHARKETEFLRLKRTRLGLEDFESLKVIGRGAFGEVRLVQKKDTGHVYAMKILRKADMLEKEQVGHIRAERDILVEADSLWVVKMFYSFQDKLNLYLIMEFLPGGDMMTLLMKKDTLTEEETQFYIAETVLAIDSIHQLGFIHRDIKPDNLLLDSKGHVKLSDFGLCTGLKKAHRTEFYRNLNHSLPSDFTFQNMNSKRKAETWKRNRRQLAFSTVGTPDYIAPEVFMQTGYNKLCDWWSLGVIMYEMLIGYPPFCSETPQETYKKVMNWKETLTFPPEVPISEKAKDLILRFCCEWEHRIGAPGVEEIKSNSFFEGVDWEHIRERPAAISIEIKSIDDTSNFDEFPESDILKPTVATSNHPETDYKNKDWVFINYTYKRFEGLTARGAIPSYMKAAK

half-life of dissociation after 500 nM ganetespib (STK38): ~3 min | half-life of dissociation after 500 nM ganetespib (LCK): ~3 min | half-life of dissociation after 500 nM ganetespib (CDK6): ~3 min | half-life of dissociation after 500 nM ganetespib (FGFR3): 29 min
B1: Renilla luciferase-tagged HSP90β (natural protein)
chain: not shown
